# Measured values as given in patent publication US20200405841A1 (GlaxoSmithKline, published 2020).
# T1: UspA2 of Moraxella catarrhalis Dutch isolate F10 (Moraxella catarrhalis)
# T1 chain: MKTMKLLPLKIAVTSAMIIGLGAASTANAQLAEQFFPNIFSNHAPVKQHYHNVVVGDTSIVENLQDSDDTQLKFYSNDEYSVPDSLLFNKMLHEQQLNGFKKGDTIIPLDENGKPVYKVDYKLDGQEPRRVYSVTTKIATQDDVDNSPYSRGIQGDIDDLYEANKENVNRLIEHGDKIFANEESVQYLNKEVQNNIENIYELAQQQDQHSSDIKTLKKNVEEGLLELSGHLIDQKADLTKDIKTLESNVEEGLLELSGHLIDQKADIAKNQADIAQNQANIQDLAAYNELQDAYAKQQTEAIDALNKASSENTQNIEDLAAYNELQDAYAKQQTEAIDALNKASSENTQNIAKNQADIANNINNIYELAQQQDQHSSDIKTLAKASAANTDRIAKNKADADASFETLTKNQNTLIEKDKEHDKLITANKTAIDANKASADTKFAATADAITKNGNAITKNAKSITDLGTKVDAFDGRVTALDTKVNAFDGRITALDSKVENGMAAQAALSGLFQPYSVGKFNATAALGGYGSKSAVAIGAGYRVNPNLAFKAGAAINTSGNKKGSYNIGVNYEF
# T2: UspA2 of Moraxella catarrhalis strain ATCC 25238 (Moraxella catarrhalis)
# T2 chain: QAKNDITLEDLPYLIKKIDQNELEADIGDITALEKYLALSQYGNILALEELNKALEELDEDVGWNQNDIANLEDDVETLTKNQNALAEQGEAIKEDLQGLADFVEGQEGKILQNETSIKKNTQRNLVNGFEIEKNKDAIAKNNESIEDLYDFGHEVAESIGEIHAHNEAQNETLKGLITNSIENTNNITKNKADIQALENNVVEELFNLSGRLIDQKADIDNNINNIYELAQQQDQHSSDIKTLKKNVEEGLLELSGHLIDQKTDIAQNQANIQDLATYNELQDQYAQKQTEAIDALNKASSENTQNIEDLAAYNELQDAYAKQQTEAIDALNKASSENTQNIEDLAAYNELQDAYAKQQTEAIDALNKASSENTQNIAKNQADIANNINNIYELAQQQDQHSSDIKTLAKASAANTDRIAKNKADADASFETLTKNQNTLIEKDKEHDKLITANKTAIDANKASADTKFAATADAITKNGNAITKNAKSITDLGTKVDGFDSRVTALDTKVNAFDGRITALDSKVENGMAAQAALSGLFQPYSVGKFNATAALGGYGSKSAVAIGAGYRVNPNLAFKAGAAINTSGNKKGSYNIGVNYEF
# T3: recombinant soluble UspA2 (SEQ ID NO: 53) (Moraxella catarrhalis)
# T3 construct: also called MC-009; soluble UspA2 recombinant protein
# T3 chain: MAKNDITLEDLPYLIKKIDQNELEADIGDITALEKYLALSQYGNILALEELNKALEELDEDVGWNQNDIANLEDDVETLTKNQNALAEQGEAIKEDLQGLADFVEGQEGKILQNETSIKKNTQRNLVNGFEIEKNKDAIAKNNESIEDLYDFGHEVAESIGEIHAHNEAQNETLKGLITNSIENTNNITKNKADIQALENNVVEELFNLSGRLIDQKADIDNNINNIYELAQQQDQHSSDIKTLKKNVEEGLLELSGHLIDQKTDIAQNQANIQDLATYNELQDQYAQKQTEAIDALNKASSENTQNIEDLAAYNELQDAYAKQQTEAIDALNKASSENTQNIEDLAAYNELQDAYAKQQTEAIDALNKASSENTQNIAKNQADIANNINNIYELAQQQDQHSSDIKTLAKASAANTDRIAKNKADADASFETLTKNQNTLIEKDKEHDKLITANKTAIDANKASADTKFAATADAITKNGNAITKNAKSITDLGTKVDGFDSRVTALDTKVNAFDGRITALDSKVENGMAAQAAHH
# What was measured:
# [1] = target: T1, UspA2 of Moraxella catarrhalis Dutch …; experiment: cell-based or functional assay
# [2] = target: UspA2 of Moraxella catarrhalis Denmark isolate BBH18 (Moraxella catarrhalis); experiment: cell-based or functional assay
# [3] = target: T2, UspA2 of Moraxella catarrhalis strain …; experiment: cell-based or functional assay
# [4] = target: UspA1 of Moraxella catarrhalis strain ATCC 43617 (Moraxella catarrhalis); experiment: cell-based or functional assay
# [5] = target: UspA2H of Moraxella catarrhalis UK isolate 296 (AERIS study) (Moraxella catarrhalis); experiment: cell-based or functional assay
# [6] = target: UspA2H of Moraxella catarrhalis UK isolate 415 (AERIS study) (Moraxella catarrhalis); experiment: cell-based or functional assay
# [7] = target: UspA2H of Moraxella catarrhalis UK isolate 268 (AERIS study) (Moraxella catarrhalis); experiment: cell-based or functional assay
# [8] = target: UspA2H of Moraxella catarrhalis UK isolate 240 (AERIS study) (Moraxella catarrhalis); experiment: cell-based or functional assay
# [9] = target: UspA2H of Moraxella catarrhalis UK isolate 193 (AERIS study) (Moraxella catarrhalis); experiment: cell-based or functional assay
# [10] = target: T3, recombinant soluble UspA2 (SEQ ID NO: …); experiment: negative-stain electron microscopy of the complex
binder,measurement,setting,value
"FHUSPA2/10 monoclonal antibody (antibody, V domains shown, Hybridoma-secreted mouse monoclonal antibody; Isotype confirmed as IgG2a, light chain of kappa class; also called FHUSPA2/10 mAb; anti-UspA2 monoclonal antibody FHUSPA2/10) VH: EVQLQQSGTVLARPGASVKMSCKASGYSFTSYWMHWVKQRPGQGLEWIGAIYPGNSDTSYNQKFKGKAKLTAVTSASTAYMELSNLTNEDSAVYSCTLLRFLDAYWGQGTLVTVSA VL: QIVLSQSPAILSASPGEKVTMTCRASSSVSYMHWYQQKPGSSPKPWIYATSNLASGVPARFSGSGSGTSYSLTISRVEAEDAATYYCQQWSSNPPTFGGGSKLEIK",bactericidal activity (mid-point titer),[1],528000 reciprocal dilution inducing 50% of killing
same,bactericidal activity (mid-point titer),[2],386000 reciprocal dilution inducing 50% of killing
same,bactericidal activity (mid-point titer),[3],1.88e+06 reciprocal dilution inducing 50% of killing
same,bactericidal activity (mid-point titer),[4],< 100 reciprocal dilution inducing 50% of killing
same,bactericidal activity (mid-point titer),[5],114000 reciprocal dilution inducing 50% of killing
same,bactericidal activity (mid-point titer),[6],256000 reciprocal dilution inducing 50% of killing
same,bactericidal activity (mid-point titer),[7],> 384000 reciprocal dilution inducing 50% of killing
same,bactericidal activity (mid-point titer),[8],> 25600 reciprocal dilution inducing 50% of killing
same,bactericidal activity (mid-point titer),[9],> 640000 reciprocal dilution inducing 50% of killing
same,binding result,[10],binds
